The target in series [1] is T1, Msl5-(KH-QUA2) (Saccharomyces cerevisiae, UniProt Q12186 144-271).
T1 sequence: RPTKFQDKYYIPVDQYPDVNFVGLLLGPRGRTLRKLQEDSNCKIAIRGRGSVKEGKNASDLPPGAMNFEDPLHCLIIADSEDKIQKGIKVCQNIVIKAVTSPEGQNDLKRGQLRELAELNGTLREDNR
In words: EMSA. For orientation: In EMSA bound probe runs differently from free probe, usually more slowly.

Series [2] addresses T1, Msl5-(KH-QUA2). Description: EMSA. The source holds these as a separate data set.

Regarding UAUACUAUCAA (ssRNA) [11-mer RNA A6U], the binding result in series [1] is on record as “no binding”.

With UAUACUAGCAA (ssRNA) [11-mer RNA A6G], the binding result in series [1] is on record as “no binding”.

In the case of UAUACCAACAA (ssRNA) [11-mer RNA U4C], the binding result in series [1] is on record as “no binding”.

For UAUACUAACAA (ssRNA) [11-mer branchpoint RNA (WT)], the “apparent K (half saturation)” value in series [2] was 140 nM.

On to UAUACGAACAA (ssRNA) [11-mer RNA U4G], for which, in series [1], the binding result is listed as “no binding”.

The values are drawn from publication PMC4338336.
